Assay results published in article PMC3074145 (Nucleic Acids Research, 2010).
Substitutions are numbered along the chain they refer to. Where two headings read alike, the source gives them in different places.

Experiments:
[1] = target: T1, GST-Sld2T84D (Saccharomyces cerevisiae, UniProt P34252 1-453, T84D); assay: GST pull-down
T1 sequence: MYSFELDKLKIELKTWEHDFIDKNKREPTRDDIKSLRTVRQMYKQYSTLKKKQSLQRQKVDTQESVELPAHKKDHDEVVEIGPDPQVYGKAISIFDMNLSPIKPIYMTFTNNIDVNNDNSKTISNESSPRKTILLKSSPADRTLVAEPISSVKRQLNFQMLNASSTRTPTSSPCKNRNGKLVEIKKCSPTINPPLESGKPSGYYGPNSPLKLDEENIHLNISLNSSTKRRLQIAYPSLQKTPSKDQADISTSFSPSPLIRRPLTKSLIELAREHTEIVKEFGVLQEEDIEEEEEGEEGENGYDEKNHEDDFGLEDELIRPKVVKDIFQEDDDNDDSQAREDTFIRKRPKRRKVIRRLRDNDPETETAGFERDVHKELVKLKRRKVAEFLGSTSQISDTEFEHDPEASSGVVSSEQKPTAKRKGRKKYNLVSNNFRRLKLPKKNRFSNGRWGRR

[2] = target: T1, GST-Sld2T84D; assay: GST pull-down; remark: listed apart in the source
[3] = target: T2, GST–Dpb11 (S. cerevisiae, UniProt P47027 1-764); assay: pull-down
T2 sequence (looked up): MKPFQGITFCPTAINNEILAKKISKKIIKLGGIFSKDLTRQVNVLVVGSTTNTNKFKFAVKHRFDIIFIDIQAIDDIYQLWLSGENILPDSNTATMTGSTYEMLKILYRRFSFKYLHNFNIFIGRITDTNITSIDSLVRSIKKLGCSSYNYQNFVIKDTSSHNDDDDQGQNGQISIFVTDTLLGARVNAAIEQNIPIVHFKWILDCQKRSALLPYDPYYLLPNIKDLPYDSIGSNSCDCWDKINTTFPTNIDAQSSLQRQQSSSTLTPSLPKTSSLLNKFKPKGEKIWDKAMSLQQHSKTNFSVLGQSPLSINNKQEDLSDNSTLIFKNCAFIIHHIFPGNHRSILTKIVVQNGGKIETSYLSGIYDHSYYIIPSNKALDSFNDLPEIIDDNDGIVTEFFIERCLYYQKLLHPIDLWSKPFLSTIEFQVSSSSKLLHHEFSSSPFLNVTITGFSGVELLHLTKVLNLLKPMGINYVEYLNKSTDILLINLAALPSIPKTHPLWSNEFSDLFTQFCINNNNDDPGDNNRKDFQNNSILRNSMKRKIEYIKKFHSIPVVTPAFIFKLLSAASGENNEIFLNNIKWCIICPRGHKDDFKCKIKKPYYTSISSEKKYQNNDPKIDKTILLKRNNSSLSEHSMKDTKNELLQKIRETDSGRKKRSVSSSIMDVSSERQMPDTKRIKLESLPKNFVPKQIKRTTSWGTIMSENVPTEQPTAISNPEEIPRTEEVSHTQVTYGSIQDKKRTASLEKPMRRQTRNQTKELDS

[4] = target: T3, Sld2 (Saccharomyces cerevisiae, UniProt P34252 1-453); assay: fluorescence anisotropy
T3 sequence: T1 sequence with D84T

[5] = target: T4, Sld2T84D (Saccharomyces cerevisiae, UniProt P34252 1-453, T84D); assay: fluorescence anisotropy
T4 sequence: T1 sequence

[6] = target: T5, Dpb11;Sld2T84D (Saccharomyces cerevisiae;Saccharomyces …, UniProt P47027;P34252 1-764;1-453, |T84D); assay: biotin-DNA pull-down
T5 sequence 1: T2 sequence (looked up)
T5 sequence 2: T1 sequence

B1: ARS1-T-A (ssDNA)
DNA: AAACAACAAGAAAAAAAACAGAAAAAAAGAAAAGAACAAAAAAGCAAGCAAAACAAAAGGCCAGCAGGCAAGAGCACAAA
binding result [1]: no binding

B2: ARS1-A-C (ssDNA)
DNA: TTCCCTCTTGTTCTTTTCCCGCTTTTCTGTTTCGCTCTTTTCTGCTTGCTTTTCCCCCGGCCTGCCGGCCCGTGCCCCCC
binding result [2]: binds

B3: Sld2T84D (radiolabeled, with a PKA sequence at the N-terminus) (natural protein, S. cerevisiae, UniProt P34252 1-453, looked up)
chain: T1 sequence
modifications: 32P-phosphate on the N-terminal PKA sequence (radiolabeled with PKA and γ-32P-ATP)
percent of input pulled down (with ssARS1-1 at a ratio of 1.2 ssARS1-1/Sld2T84D) [3]: 35.2%

B4: ARS1-G-C (ssDNA)
DNA: TTACATCTTGTTATTTTACACATTTTATCTTTACATCTTTTATCCTTCCTTTTCAAAACCCCTCCACCCAACTCCACAAA
binding result [2]: binds

B5: FAM-ssARS1-1 (ssDNA)
DNA: TTACATCTTGTTATTTTACAGATTTTATGTTTAGATCTTTTATGCTTGCTTTTCAAAAGGCCTGCAGGCAAGTGCACAAA
Kd [4]: 694 ± 50 nM
Kd [5]: 179 ± 43 nM

B6: Biotin-ssARS1-1 (ssDNA)
DNA: B5 DNA
binding result [6]: binds
